Data from patent US20260116991A1 (HAINAN SIMCERE ZAIMING PHARMACEUTICAL, published 2026).
Numbering of substitutions follows the chain as printed.

B1: F2.23.8 (antibody, human IgG1, kappa, V domains shown)
VH: QVQLQQSGAELVRPGASVKLSCKASGYTFTDYEMHWVKQTPVHGLEWFGAIDPETGGTAYNQKFRAKATLTADKSSSTAYMELRSLTSEDSAVYYCTRFYSFAYWGQGTLVTVSA
VL: DVVMTQTPLSLPVSLGDQASISCRSSQSLVHSNGNTYLQWYLQKPGQSPKLLIYKVSNRFSGVPDRFSGSGSGTDFTLKITRVEAEDLGVYFCSQSTHVPYTFGSGTKLEIKR
notes: Human-murine chimeric antibody
B2: F2.39.2 (antibody, human IgG1, kappa, V domains shown)
VH: B1 VH with L20V, V37M, F48I, I51N, D52E, G57R, T58S, N61D, R65K, A66G
VL: B1 VL with S28G, S32N, Q39H, T81S, S96N, Y101P, S105G
notes: as for B1
B3: F2.92.1 (antibody, human IgG1, kappa, V domains shown)
VH: B1 VH with T28I, T30S, M34I, W47C, F48I, I51V, R65K, A66G, Y95F, A115T
VL: B1 VL with A19G, T81S, S94C, P100L, Y101P, S105G
notes: as for B1
B4: F2.169.2 (antibody, human IgG1, kappa, V domains shown)
VH: EVQLVETGGGLVQPKGSLKLSCAASGFSFNTNAMNWVRQAPGKGLEWVARIRSKSNNYATYYADSVKDRFTISRDDSQSMLYLQMNNLKTEDTAMYYCVRDGYYVLFAYWGQGTLVTVSA
VL: DVLMTQTPLSLPVSLGDQASISCRFSQSIVNSNGNTYLEWFLQKPGQSPKLLIYKVSNRFSGVPDRFSGSGSGTDFTLKISRVEAEDLGVYYCFQGSHVPFTFGTGTKLEIKR
notes: as for B1
B5: F1.73.9 (antibody, human IgG1, kappa, V domains shown)
VH: QVQLKQSGAELVRPGASVKLSCKASGYTFTDYYINWVKQRPGQGLEWIARIYPGSGNTYYNEKFKGKATLTAEKSSSTAYMQFSSLTSEDSAVYFCACSTYYTMDYWGQGTSVTVSS
VL: QIVLTQSPAIMSASLGERVTMTCTASSGVSSSYLHWYQQKPGSSPKLWIYTTSNLASGVPARFSGSGSGTSYSLTISSMEAEDAATYYCHQYHRSPYTFGGGTKLEIKR
notes: as for B1
B6: F1.42.8 (antibody, human IgG1, kappa, V domains shown)
VH: HVQLQQPGAELVKPGASVKLSCKASGYTFTSYWMHWVRQRPGQGLEWIEMIHPNSGSTNYNEKFKSKATLTVDKSSSTAYMQLSSLTSEDSAVYYCARGNYNSSLYAMDYWGQGTSVTVSS
VL: DIQMTQTTSSLSASLGDRVTISCSASQGISNYLNWYQQKPDGTVKLLIYYASNLHSGVPSRFSGSGSGTAYSLTISNLEPEDIATYYCQQYSILPYTFGGGTKLEIKR
notes: as for B1

What follows are binders tested against T1, human GPC3-His protein (human, UniProt P51654 25-559) (assay: SPR, antibody captured on Protein A chip, human GPC3-His analyte;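 also: measured at 25 °C flow cell, human GPC3-His injected at five concentrations up to 200 nM, 240 s association, up to 600 s dissociation, double-referenced, fitted to Langmuir 1:1 model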).
T1 construct: also called human GPC3 protein; not shown: His tag

Point of comparison: B1, Kd 20.4 nM. Against it:
- B2 — 2.9-fold lower, 6.97 nM
- B3 — 34-fold lower, 0.6 nM

Point of comparison: B1, koff 0.00327 s⁻¹. Against it:
- B2 — 1.6-fold lower, 0.0021 s⁻¹
- B3 — 14-fold lower, 0.000242 s⁻¹

Point of comparison: B3, kon 404000 M⁻¹ s⁻¹. Against it:
- B1 — 2.5-fold lower, 161000 M⁻¹ s⁻¹
- B2 — within 1.5-fold, 302000 M⁻¹ s⁻¹

The binders below were run against T2, monkey GPC3 on HEK293T-monkey GPC3 cells (monkey) (assay: FACS on HEK293T-monkey GPC3 cells;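 also: flow cytometry binding of test antibodies to the cells, read as mean fluorescence intensity, with half-maximal concentration taken from fitted curves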).
T2 construct: whole, on cells

Point of comparison: B4, EC50 0.51 nM. Against it:
- B5 — 1.6-fold lower, 0.32 nM
- B6 — 1.9-fold lower, 0.27 nM

Point of comparison: B6, “Max MFI” value 7620 MFI. Against it:
- B4 — higher, 9880 MFI
- B5 — lower, 5700 MFI

The binders below were run against T3, monkey GPC3-His protein (monkey) (assay: SPR, antibody captured on Protein A chip, monkey GPC3-His analyte;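 also: run at 25 °C with 240 s association and up to 600 s dissociation, double-referenced, kinetics fitted to a 1:1 Langmuir binding model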).
T3 construct: Bought recombinant protein; also called monkey GPC3 protein

Point of comparison: B2, Kd 4.28 nM. Against it:
- B1 — 3.2-fold higher, 13.5 nM
- B3 — 12-fold lower, 0.353 nM

Point of comparison: B3, koff 0.000221 s⁻¹. Against it:
- B1 — 17-fold higher, 0.0038 s⁻¹
- B2 — 9.9-fold higher, 0.00219 s⁻¹

Point of comparison: B3, kon 628000 M⁻¹ s⁻¹. Against it:
- B1 — 2.2-fold lower, 281000 M⁻¹ s⁻¹
- B2 — within 1.5-fold, 512000 M⁻¹ s⁻¹

The binders below were run against T3, monkey GPC3-His protein (assay: ELISA, monkey GPC3-His coated;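 also: Plate-coated antigen at 1 µg/mL, antibody binding 2 h at 37 °C, detected with HRP-labeled secondary antibody and TMB, absorbance at 450 nm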).

Point of comparison: B4, “OD450 at 0.0001 nM” value 0.05 OD450. Against it:
- B1 — higher, 0.27 OD450
- B2 — higher, 0.21 OD450
- B3 — higher, 0.23 OD450
- B5 — the same, 0.05 OD450
- B6 — the same, 0.05 OD450

Point of comparison: B1, “OD450 at 0.001 nM” value 0.28 OD450. Against it:
- B2 — higher, 0.34 OD450
- B3 — lower, 0.27 OD450
- B4 — lower, 0.07 OD450
- B5 — lower, 0.06 OD450
- B6 — lower, 0.08 OD450

Point of comparison: B2, “OD450 at 0.01 nM” value 0.66 OD450. Against it:
- B1 — lower, 0.58 OD450
- B3 — lower, 0.65 OD450
- B4 — lower, 0.27 OD450
- B5 — lower, 0.18 OD450
- B6 — lower, 0.35 OD450

Point of comparison: B5, “OD450 at 0.1 nM” value 0.73 OD450. Against it:
- B1 — higher, 1.8 OD450
- B2 — higher, 1.98 OD450
- B3 — higher, 1.9 OD450
- B4 — higher, 1.36 OD450
- B6 — higher, 1.61 OD450

Point of comparison: B3, “OD450 at 1 nM” value 2.3 OD450. Against it:
- B1 — lower, 2.22 OD450
- B2 — higher, 2.36 OD450
- B4 — lower, 2.27 OD450
- B5 — lower, 1.14 OD450
- B6 — higher, 2.31 OD450

Point of comparison: B4, “OD450 at 10 nM” value 2.64 OD450. Against it:
- B1 — lower, 2.24 OD450
- B2 — lower, 2.28 OD450
- B3 — lower, 2.24 OD450
- B5 — lower, 1.27 OD450
- B6 — lower, 2.46 OD450

Point of comparison: B4, “OD450 at 100 nM” value 1.99 OD450. Against it:
- B1 — higher, 2.25 OD450
- B2 — higher, 2.35 OD450
- B3 — higher, 2.34 OD450
- B5 — lower, 1.47 OD450
- B6 — higher, 2.67 OD450
